# Publication PMC6684798, “Structural basis for the target specificity of actin histidine methyltransferase SETD3” (Nature Communications, 2019)
# Legend:
# SETD3 WT = biological target: T1, SETD3 WT (Homo sapiens, UniProt Q86TU7); assay: MALDI-TOF analysis of K73(66–88) methylation by SETD3 WT (Fig. 3e); assay type: biochemical; conditions: pH 10.5, 37 °C, 3 μM WT, 10 µM peptide, 40 µM SAM
# T1 construct: GST (cleaved yes); made in house; host or cells: Escherichia coli BL21(DE3) CodonPlus
# T1 sequence (Q86TU7 1-594): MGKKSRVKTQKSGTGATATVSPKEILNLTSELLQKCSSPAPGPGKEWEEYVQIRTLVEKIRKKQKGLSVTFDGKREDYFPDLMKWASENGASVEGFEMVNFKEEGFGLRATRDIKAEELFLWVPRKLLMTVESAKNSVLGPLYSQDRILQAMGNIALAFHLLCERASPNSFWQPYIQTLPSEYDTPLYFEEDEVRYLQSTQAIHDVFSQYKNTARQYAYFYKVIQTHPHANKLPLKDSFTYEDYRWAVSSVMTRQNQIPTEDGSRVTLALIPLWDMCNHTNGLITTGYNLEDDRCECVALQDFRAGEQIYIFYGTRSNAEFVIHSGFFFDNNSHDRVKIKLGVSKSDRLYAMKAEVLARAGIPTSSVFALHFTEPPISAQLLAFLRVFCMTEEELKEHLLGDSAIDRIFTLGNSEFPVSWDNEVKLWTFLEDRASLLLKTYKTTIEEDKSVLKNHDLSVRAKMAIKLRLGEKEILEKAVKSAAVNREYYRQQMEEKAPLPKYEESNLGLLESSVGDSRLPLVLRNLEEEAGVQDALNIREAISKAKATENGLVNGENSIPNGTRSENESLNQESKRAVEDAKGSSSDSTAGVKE
# Protocol: (§1) Fig. 3 Kinetics of SETD3 on H73 and K73 peptides. a Comparison of activities of three variants (WT, N255A, and N255V) on H73(66–80) peptide. The assays were performed at room temperature (~22 °C) and pH 8.0 using [WT] = 0.18 μM, [N255A] = 0.18 μM, and [N255V] = 0.72 μM. b Comparison of SETD3 WT activities on two K73 peptides (residues 66–80 and 66–88). The assays were performed at 37 °C and pH 10.5 using [WT] = 3 and 15 μM, respectively, for the long and short peptides. c Comparison of activities of three variants (N255A, N255V, and WT) on K73(66–88) peptide. The assays were performed at 37 °C and pH 10.5 using [N255A] = 90 nM, [N255V] = 0.72 μM and [WT] = 4 μM. Data represent the mean ± SD of N number of independent determinations (N = 3 for the WT and N = 2 for the mutants) performed in duplicate. Source data are provided as a Source Data file. d, e Mass spectrometry analysis of K73(66–88) methylation kinetic showing representative spectra at various time points for N255A variant (panel d) and SETD3 WT enzyme (panel e). […]
# (§2) Recombinant human SETD3 (pXC2003) was expressed as a GST-fusion[22] in Escherichia coli BL21(DE3) CodonPlus^TM cells (Stratagene). […]
# Actin K73 peptide (residues 66–88) was used as a substrate for SETD3 (Fig. 3d, e). […] We note that samples diluted into a 0.1% (v/v) TFA solution in water could not be detected by MALDI-TOF, thus the acetonitrile additive is necessary.
# [1] = tested on: SETD3 variants (WT, N255A, N255V); assay: Comparison of activities of SETD3 variants (Fig. 3a, c); assay type: biochemical, human; conditions: Fig. 3c, K73(66–88), pH 10.5, 37 °C
# Protocol: as §1, with “duplicate.” for “duplicate. Source data are provided as a Source Data file. d, e Mass spectrometry analysis of K73(66–88) methylation kinetic showing representative spectra at various time points for N255A variant (panel d) and SETD3 WT enzyme (panel e).”
# as §2
# A reaction mixture contained 20 mM Tris/HCl (pH 8.0) or 20 mM glycine/NaOH (pH 10.5), 50 mM NaCl, 0.1 mg/ml BSA, 1 mM DTT, 0.18–15 µM SETD3 (as indicated in Fig. 3), 40 µM SAM and varying concentration of peptides. […] The dependence of the velocity of product formation per enzyme on substrate concentration was analyzed according to the Michaelis–Menten equation.
substance,measurement,setting,value
"K73(66–88): K73-containing actin H73K peptide, residues 66–88 (TLKYPIEKGIVTNWDDMEKIWHH; UniProt P60709 66-88, looked up, variant H73K)",K73 methylation product,SETD3 WT; 2 h,only monomethyl lysine
same,K73 methylation product,SETD3 WT; overnight,"substantial amounts of unmodified and monomethyl substrates remain, along with a small amount of dimethyl and tri-methyl products"
same,order of activity of SETD3 variants on K73,[1],N255A≫N255V>WT
